Measured values reported in IntAct's records for PubMed 18325333.

Target: cdk5_mouse Cdk5 (UniProt P49615)

Cyclin-dependent kinase 5 activator 1 (Mus musculus), P61809 D288A, sequence (P61809 whole entry D288A): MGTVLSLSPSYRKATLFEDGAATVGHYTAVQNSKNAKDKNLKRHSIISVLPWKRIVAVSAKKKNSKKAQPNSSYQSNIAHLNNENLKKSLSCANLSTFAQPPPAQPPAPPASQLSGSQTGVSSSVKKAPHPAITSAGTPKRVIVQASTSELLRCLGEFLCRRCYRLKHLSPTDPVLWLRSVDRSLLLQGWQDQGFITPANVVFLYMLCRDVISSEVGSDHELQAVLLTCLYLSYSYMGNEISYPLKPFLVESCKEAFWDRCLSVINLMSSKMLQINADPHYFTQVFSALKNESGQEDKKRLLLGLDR
Cyclin-dependent kinase 5 activator 1 (Mus musculus), P61809 L289A, sequence (P61809 whole entry L289A): as the sequence (P61809 whole entry D288A) above, with A288D, L289A counted along it

Substance | effect of a mutation on the interaction
Cyclin-dependent kinase 5 activator 1 (Mus musculus), P61809 L289A | disrupting interaction
Cyclin-dependent kinase 5 activator 1 (Mus musculus), P61809 D288A | disrupting interaction
